The values that follow come from US20200102387A1 (CELGENE, published 2020).

Holding throughout (assay): BLI Octet, antigen-Fc on biosensor
Test [1] has as its target T1, human SIRPα v2-Fc (SIRPα2 extracellular domain fused to human IGHG1_Fc) (human, UniProt P78324 31-373; P0DOX5 223-449 = IgG part).
T1 construct: as m38; also called V2 (e.g. SIRPα2); SIRPα V2:ESE

The next test has as its target T2, human SIRPγ-Fc (human).
T2 construct: a signal peptide may be part of the entry

For test [2], the target named is T3, human SIRPα v6-Fc (SIRPα6 extracellular domain fused to human IGHG1_Fc) (human, UniProt P78324 31-373; P0DOX5 223-449 = IgG part).
T3 construct: as m38; also called V6 (e.g. SIRPα6)

Another test has as its target T4, human SIRPβ-Fc (human).
T4 construct: a signal peptide may be part of the entry

Test [3] concerns the target T5, mouse SIRPα-Fc (mouse).
T5 construct: a signal peptide may be part of the entry; also called Ms; Ms SIRPα-Fc

A further test concerns the target T6, cyno SIRPα-Fc (cynomolgus).
T6 construct: a signal peptide may be part of the entry

The target of test [4] is T7, human SIRPα v1-Fc (SIRPα1 extracellular domain fused to human IGHG1_Fc) (human, UniProt P78324 31-373; P0DOX5 223-449 = IgG part).
T7 construct: also called V1 (e.g. SIRPα1); SIRPα V1: DLN

The target in test [5] is T5, mouse SIRPα-Fc. This is another data set of the same source.
In test [6] the target is T8, human SIRPα v3-Fc (SIRPα3 extracellular domain fused to human IGHG1_Fc) (human, UniProt P78324 31-373; P0DOX5 223-449 = IgG part).
T8 construct: as m38; also called V3 (e.g. SIRPα3)

Test [7] has as its target T9, human SIRPα v5-Fc (SIRPα5 extracellular domain fused to human IGHG1_Fc) (human, UniProt P78324 31-373; P0DOX5 223-449 = IgG part).
T9 construct: as m38; also called V5 (e.g. SIRPα5)

Where two headings read alike, the source gives them in different places.
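Wherever koff is given: antigen captured on the biosensor tip and then immersed in solutions of the test antibodies, which act as the analyte.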
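Wherever kon is given: antigen captured on the biosensor tip and then immersed in solutions of the test antibodies, which act as the analyte.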
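Wherever result is given: antigen captured on the biosensor tip and then immersed in solutions of the test antibodies, which act as the analyte.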

T5 sequence (chain, as listed by the source limits assumed): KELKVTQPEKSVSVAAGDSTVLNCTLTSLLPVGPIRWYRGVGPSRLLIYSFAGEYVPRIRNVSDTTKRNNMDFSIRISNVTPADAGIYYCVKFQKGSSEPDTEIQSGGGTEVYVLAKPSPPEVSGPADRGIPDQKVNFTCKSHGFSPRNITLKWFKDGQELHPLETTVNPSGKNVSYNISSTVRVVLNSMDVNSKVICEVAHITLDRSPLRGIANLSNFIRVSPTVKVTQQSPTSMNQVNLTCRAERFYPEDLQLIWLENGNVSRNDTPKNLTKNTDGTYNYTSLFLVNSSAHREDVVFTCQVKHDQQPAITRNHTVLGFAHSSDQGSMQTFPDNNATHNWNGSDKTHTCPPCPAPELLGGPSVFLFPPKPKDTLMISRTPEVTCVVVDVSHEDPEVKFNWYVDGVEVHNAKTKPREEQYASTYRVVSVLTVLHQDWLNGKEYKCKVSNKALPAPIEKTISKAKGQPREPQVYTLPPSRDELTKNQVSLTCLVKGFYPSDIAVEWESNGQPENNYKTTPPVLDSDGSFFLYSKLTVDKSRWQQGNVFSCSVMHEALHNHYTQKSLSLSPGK

B1: SIRPAB-1 (antibody, human IgG1, kappa, V domains shown)
VH: QVQLQESGPGLVKPSQTLSLTCTVSGGSISSGGYYWSWIRQHPGKGLEWIGSIYYSGSTYYNPSLKSRVTISVDTSKNQFSLKLSSVTAADTAVYYCAREGYHSGMDVWGQGTTVTVSS
VL: DIQMTQSPSSLSASVGDRVTITCQASQDISNYLNWYQQKPGKAPKLLIYDASNLATGVPSRFSGSGSGTDFTFTISSLQPEDIATYYCQQFAYLPWTFGGGTKVEIKR
With B1, the Kd in [1] was found to be 44.2 nM; with human SIRPγ-Fc it was 1.43 nM; in test [2], 54.9 nM; in the test with human SIRPβ-Fc, 4.61 nM.

B2: SIRPAB-6 (antibody, human IgG1, kappa, V domains shown)
VH: QVQLQESGPGLVKPSQTLSLTCTVSGGSISSGGYYWSWIRQHPGKGLEWIGYIYYSGSTYYNPSLKSRVTISVDTSKNQFSLKLSSVTAADTAVYYCAREGLDGSYGSSAWGQGTLVTVSS
VL: DIQLTQSPSSLSASVGDRVTITCQASQDISNYLNWYQQKPGKAPKLLIYDASNLETGVPSRFSGSGSGTDFTFTISSLQPEDIATYYCQQFAYLPYTFGGGTKVEIKR
B2: the binding result (in test [1]; with mouse SIRPα-Fc [3]; in test [2]) was “no binding” throughout. The same molecule had a dissociation constant (Kd) in the test with human SIRPγ-Fc of 8.36 nM.

B3: SIRPAB-2 (antibody, human IgG1, kappa, V domains shown)
VH: QVQLQESGPGLVKPSQTLSLTCTVSGGSISSGGDYWAWIRQHPGKGLEWIGYIYPSGFTYYNPSLKSRVTISVDTSKNQFSLKLSSVTAADTAVYYCAREGYHSGMDVWGQGTTVTVSS
VL: DIQMTQSPSSLSASVGDRVTITCQASQDISNYLNWYQQKPGKAPKLLIYDASNLATGVPSRFSGSGSGTDFTFTISSLQPEDIATYYCQQFAYLPWTFGGGTKVEIKR
For B3, the Kd in test [1] was found to be 10.7 nM; with human SIRPγ-Fc, 0.14 nM; in the test with cyno SIRPα-Fc it was 19.3 nM; in test [2], 11.9 nM; with human SIRPβ-Fc, 0.89 nM.

B4: SIRPAB-4 (antibody, human IgG1, kappa, V domains shown)
VH: QVQLQESGPGLVKPSQTLSLTCTVSGGSISSGSPYWSWIRQHPGKGLEWIGYIYASGFTYYNPSLKSRVTISVDTSKNQFSLKLSSVTAADTAVYYCAREGYHSGMDVWGQGTTVTVSS
VL: DIQMTQSPSSLSASVGDRVTITCQASQDISNYLNWYQQKPGKAPKLLIYDASNLATGVPSRFSGSGSGTDFTFTISSLQPEDIATYYCQQFAYLPWTFGGGTKVEIKR
For B4, the Kd in [1] came to 18.2 nM; in the test with mouse SIRPα-Fc [3] it was 72.8 nM; in test [4] it was 0.45 nM; in the test with human SIRPγ-Fc it was 0.144 nM; with cyno SIRPα-Fc, 18 nM; with human SIRPβ-Fc, 1 nM.

B5: SIRPAB-19 (antibody, human IgG1, kappa, V domains shown)
VH: QVQLQESGPGLVKPSQTLSLTCTVSGGSISSGGYYWSWIRQHPGKGLEWIGAIYYSGPIYYNPSLKSRVTISVDTSKNQFSLKLSSVTAADTAVYYCSKEGYHSGMDVWGQGTTVTVSS
VL: DIQMTQSPSSLSASVGDRVTITCQASDDISDYLNWYQQKPGKAPKLLIYDASNIEDGVPSRFSGSGSGTDFTFTISSLQPEDIATYYCQQFAYLPWTFGGGTKVEIKR
For the molecule B5, the equilibrium dissociation constant (Kd) with mouse SIRPα-Fc [5] turned out to be 1.02 nM.

B6: SIRPAB-3 (antibody, human IgG1, kappa, V domains shown)
VH: QVQLQESGPGLVKPSQTLSLTCTVSGGSISSGGWYWQWIRQHPGKGLEWIGTIYYSGSTFYNPSLKSRVTISVDTSKNQFSLKLSSVTAADTAVYYCAREGYHSGMDVWGQGTTVTVSS
VL: DIQMTQSPSSLSASVGDRVTITCQASQDISNYLNWYQQKPGKAPKLLIYDASNLATGVPSRFSGSGSGTDFTFTISSLQPEDIATYYCQQFAYLPWTFGGGTKVEIKR
On to B6, for which the Kd with mouse SIRPα-Fc [3] was 12.6 nM; in [4], 0.2 nM; in the test with human SIRPγ-Fc, 0.118 nM; in the test with cyno SIRPα-Fc, 7.95 nM; with human SIRPβ-Fc it was 0.22 nM.

B7: SIRPAB-20 (antibody, human IgG1, kappa, V domains shown)
VH: QVQLQESGPGLVKPSQTLSLTCTVSGGSISSGGYYWSWIRQHPGKGLEWIGAIYYSGPIYYNPSLKSRVTISVDTSKNQFSLKLSSVTAADTAVYYCSKEGYHSGMDVWGQGTTVTVSS
VL: DIQMTQSPSSLSASVGDRVTITCQASQDISDYLNWYQQKPGKAPKLLIYDADNLETGVPSRFSGSGSGTDFTFTISSLQPEDIATYYCQQFAYLPWTFGGGTKVEIKR
In the test with mouse SIRPα-Fc [5], B7 gave a Kd of 0.39 nM.

B8: SIRPAB-5 (antibody, human IgG1, kappa, V domains shown)
VH: QVQLQESGPGLVKPSQTLSLTCTVSGGSISSGPAYWSWIRQHPGKGLEWIGTIYYSGSTFYNPSLKSRVTISVDTSKNQFSLKLSSVTAADTAVYYCAREGYHSGMDVWGQGTTVTVSS
VL: DIQMTQSPSSLSASVGDRVTITCQASQDISNYLNWYQQKPGKAPKLLIYDASNLATGVPSRFSGSGSGTDFTFTISSLQPEDIATYYCQQFAYLPWTFGGGTKVEIKR
For B8, the Kd in test [1] came to 27.5 nM; in the test with mouse SIRPα-Fc [3], 7.51 nM; in test [4], 0.165 nM; in the test with human SIRPγ-Fc it was 0.154 nM; with human SIRPβ-Fc it was 0.15 nM.

B9: SIRPAB-18 (antibody, human IgG1, kappa, V domains shown)
VH: QVQLQESGPGLVKPSQTLSLTCTVSGGSISSGGYYWSWIRQHPGKGLEWIGAIYYSGPIYYNPSLKSRVTISVDTSKNQFSLKLSSVTAADTAVYYCSKEGYHSGMDVWGQGTTVTVSS
VL: DIQMTQSPSSLSASVGDRVTITCQASQDISNYLNWYQQKPGKAPKLLIYDASNLATGVPSRFSGSGSGTDFTFTISSLQPEDIATYYCQQFAYLPWTFGGGTKVEIKR
In turn, B9 displayed a Kd with mouse SIRPα-Fc [5] of 2.2 nM.

B10: SIRPAB-13 (antibody, human IgG1, kappa, V domains shown)
VH: QVQLVQSGAEVKKPGASVKVSCKASGYTFHGYGISWVRQAPGQGLEWMGWISAYSGETNYAQKLQGRVTMTTDTSTSTAYMELRSLRSDDTAVYYCAREAGSSWYDFDLWGRGTLVTVSS
VL: DIQMTQSPSSVSASVGDRVTITCRASQGISSWLAWYQQKPGKAPKLLIYAASNLQSGVPSRFSGSGSGTDFTLTISSLQPEDFATYYCQQGASFPITFGGGTKVEIKR
B10: the Kd was 17.2 nM in test [1]; 1.65 nM in test [4]; 4.12 nM in the test with human SIRPγ-Fc; 14.9 nM in the test with cyno SIRPα-Fc; 2.71 nM in [2]; 0.83 nM in test [6]. Moreover, the results for the Kd (in test [7]; in the test with human SIRPβ-Fc) were 7.73 nM and 4.52 nM, respectively. Moreover, the koff came to 0.0172 s⁻¹ in [1]; 0.00205 s⁻¹ in test [4]; 0.00558 s⁻¹ in the test with human SIRPγ-Fc; 0.0197 s⁻¹ with cyno SIRPα-Fc; 0.00364 s⁻¹ in test [2]; 0.000965 s⁻¹ in test [6]. The figures for the koff (in test [7]; in the test with human SIRPβ-Fc) were 0.00892 s⁻¹ and 0.00544 s⁻¹, respectively. The kon in test [1] came to 1e+06 M⁻¹ s⁻¹; in test [4], 1.24e+06 M⁻¹ s⁻¹; with human SIRPγ-Fc, 1.35e+06 M⁻¹ s⁻¹; in the test with cyno SIRPα-Fc, 1.32e+06 M⁻¹ s⁻¹; in test [2] it was 1.35e+06 M⁻¹ s⁻¹; in [6], 1.17e+06 M⁻¹ s⁻¹. For the same molecule, the kon in test [7] came out at 1.16e+06 M⁻¹ s⁻¹; with human SIRPβ-Fc, 1.21e+06 M⁻¹ s⁻¹. For the same molecule, the binding result with mouse SIRPα-Fc [3] is given as “no binding”.
